The values that follow are results of earlier work, collected in PMC11449392.

In this data set the target is Abl PRM (Homo sapiens) (UniProt P00519).
Sequence of UniProt P00519 (P00519 whole entry, looked up): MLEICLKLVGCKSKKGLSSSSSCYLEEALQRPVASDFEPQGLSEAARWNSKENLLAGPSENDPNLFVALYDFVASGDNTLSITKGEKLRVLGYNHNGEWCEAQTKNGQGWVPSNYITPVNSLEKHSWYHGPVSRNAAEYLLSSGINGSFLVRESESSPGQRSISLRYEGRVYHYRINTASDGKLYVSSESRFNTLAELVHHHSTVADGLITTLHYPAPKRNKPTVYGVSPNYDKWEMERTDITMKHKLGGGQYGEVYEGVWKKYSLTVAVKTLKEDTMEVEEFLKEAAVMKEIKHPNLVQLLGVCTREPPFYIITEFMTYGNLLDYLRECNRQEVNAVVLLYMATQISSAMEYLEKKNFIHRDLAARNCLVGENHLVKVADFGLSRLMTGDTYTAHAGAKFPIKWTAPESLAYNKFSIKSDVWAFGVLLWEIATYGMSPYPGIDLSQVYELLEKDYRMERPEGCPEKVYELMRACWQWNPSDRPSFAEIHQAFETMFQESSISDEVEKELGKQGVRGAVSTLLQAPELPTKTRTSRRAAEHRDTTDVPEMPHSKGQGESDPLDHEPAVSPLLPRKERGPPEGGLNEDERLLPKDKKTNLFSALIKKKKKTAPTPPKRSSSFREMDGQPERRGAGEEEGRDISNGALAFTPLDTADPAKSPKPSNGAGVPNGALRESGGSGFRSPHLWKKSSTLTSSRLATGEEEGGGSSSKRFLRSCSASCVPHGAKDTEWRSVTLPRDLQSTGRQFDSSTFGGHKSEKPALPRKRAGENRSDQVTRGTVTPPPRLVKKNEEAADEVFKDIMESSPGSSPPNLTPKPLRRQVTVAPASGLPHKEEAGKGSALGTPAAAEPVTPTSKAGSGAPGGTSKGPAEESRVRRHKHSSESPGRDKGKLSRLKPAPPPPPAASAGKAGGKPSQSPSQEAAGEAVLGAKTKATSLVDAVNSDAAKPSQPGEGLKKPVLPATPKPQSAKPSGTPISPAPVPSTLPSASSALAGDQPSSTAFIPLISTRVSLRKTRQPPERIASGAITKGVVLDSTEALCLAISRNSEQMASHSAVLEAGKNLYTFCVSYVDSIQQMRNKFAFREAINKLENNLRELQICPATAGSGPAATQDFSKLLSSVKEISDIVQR

“Nck second SH3 domain (from UniProt P16333)”: the Kd (as a rule, the constant that tells how readily two partners part at equilibrium) is 350 µM.
